Reference: publication PMC10511788, “Solution structure of the HOIL-1L NZF domain reveals a conformational switch regulating linear ubiquitin affinity” (The Journal of Biological Chemistry, 2023)

Target: T1, M1-linked di-ubiquitin (UniProt P0CG48 1-76; P0CG48 1-76)
T1 construct: ubiquitin, distal (N-terminal) moiety, M1-G76, its G76 joined by a peptide bond to M1 of the next moiety; ubiquitin, proximal (C-terminal) moiety, M1-G76, with the free C-terminal carboxylate; Two ubiquitin units head to tail on one chain; also called linear di-Ub; linear (head-to-tail) di-Ub
Test: ITC; 298 K, MicroCal iTC200; linear di-Ub (1 mM) in the syringe, HOIL-1L NZF (100 uM) in the cell (several experiments at half of these); 20 mM HEPES pH 7.0, 50 mM sodium chloride, 1 mM TCEP; one set of sites model; three independent experiments
Conditions: both partners purified

- Kd: 10.3 µM
B1: mouse HOIL-1L NZF domain (residues Pro192-Gln250) T207D (domain or fragment)
chain: GPLGSPEPVGWQCPGCTFINKPDRPGCEMCCRARPETYQIPASYQPDEEERARLAGEEEALRQYQQ
notes: HOIL-1L, mouse, NZF domain with tail, residues Pro192-Gln250, point mutant T207D; Point mutation made by PCR on the plasmid of m1; also called phosphomimetic HOIL-1L NZF; T207D HOIL-1L NZF; source: E. coli, autoinduction in N-5052 media, purified; not shown: GST, N-terminal, cleaved
